In US20200087347 (published 2020):
Side-chain parts run from the residue outwards. [ ]: non-standard residue; d: D form. NMeK = CN[C@@H](CCCCN)C(=O)O; Ahx = NCCCCCC(=O)O; BDPFL = dye

B1: Compound 8 (peptide)
chain: cyclo(RGDL[dP][NMeK]GL)
SMILES: CC(C)C[C@@H]1NC(=O)CNC(=O)[C@H](CCCCN)N(C)C(=O)[C@H]2CCCN2C(=O)[C@H](CC(C)C)NC(=O)[C@H](CC(=O)O)NC(=O)CNC(=O)[C@H](CCCNC(=N)N)NC1=O

Biological target: T1, integrin αvβ5 (human, UniProt P06756)
T1 chain 1: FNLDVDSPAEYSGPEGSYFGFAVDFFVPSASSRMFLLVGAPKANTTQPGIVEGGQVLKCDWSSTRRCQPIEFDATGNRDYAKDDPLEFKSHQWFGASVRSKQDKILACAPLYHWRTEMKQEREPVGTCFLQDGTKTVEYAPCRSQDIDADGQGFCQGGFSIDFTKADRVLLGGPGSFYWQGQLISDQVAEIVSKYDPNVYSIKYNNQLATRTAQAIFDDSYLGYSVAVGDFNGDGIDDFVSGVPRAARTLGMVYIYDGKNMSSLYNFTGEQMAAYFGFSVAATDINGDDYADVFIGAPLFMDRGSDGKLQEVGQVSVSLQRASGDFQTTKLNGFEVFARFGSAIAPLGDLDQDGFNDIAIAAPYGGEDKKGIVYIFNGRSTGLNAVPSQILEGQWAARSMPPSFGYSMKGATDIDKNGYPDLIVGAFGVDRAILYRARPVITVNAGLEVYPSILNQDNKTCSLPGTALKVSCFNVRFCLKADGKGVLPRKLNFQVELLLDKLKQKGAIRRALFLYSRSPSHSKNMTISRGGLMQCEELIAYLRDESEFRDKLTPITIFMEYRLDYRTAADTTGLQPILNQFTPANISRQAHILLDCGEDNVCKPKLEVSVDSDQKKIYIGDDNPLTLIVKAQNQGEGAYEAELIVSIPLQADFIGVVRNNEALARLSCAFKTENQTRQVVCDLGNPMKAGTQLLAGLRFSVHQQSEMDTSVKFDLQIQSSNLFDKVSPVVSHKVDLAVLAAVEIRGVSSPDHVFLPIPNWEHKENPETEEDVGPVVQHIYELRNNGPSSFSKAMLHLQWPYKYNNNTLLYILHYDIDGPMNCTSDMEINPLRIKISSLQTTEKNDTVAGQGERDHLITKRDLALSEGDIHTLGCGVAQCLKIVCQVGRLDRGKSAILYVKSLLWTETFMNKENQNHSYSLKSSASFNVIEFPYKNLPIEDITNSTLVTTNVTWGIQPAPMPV
T1 chain 2: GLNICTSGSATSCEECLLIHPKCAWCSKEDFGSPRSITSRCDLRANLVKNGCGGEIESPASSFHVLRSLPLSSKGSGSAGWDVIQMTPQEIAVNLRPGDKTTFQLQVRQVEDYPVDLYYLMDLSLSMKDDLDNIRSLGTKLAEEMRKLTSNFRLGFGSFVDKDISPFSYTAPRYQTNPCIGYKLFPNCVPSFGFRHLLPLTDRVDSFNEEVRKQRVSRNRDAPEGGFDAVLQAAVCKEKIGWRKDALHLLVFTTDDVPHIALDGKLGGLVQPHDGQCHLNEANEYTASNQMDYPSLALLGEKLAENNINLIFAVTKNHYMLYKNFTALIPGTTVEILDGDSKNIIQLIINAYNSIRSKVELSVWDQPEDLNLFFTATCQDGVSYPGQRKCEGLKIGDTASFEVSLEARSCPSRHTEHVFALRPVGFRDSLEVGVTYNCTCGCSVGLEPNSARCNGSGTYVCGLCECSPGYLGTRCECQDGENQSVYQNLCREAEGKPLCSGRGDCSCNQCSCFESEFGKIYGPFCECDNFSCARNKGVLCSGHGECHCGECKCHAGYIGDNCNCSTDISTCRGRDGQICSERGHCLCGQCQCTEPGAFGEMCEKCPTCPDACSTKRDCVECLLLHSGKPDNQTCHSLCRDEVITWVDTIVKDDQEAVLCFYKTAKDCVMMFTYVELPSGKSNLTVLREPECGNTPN
Assay: competition

| Binder | IC50 |
| --- | --- |
| cyclo(RGDL[dP][NMeK](Ac)GL) [Compound 9] | > 1000 nM |
| B1 | > 1000 nM |
| cyclo(RGDL[dP]PGL) [Compound 2] | > 1000 nM |

Biological target: T2, integrin α5β1 (human, UniProt P08648)
Assay: competition

T2 sequence (P08648 42-1049, chain 1 of 2): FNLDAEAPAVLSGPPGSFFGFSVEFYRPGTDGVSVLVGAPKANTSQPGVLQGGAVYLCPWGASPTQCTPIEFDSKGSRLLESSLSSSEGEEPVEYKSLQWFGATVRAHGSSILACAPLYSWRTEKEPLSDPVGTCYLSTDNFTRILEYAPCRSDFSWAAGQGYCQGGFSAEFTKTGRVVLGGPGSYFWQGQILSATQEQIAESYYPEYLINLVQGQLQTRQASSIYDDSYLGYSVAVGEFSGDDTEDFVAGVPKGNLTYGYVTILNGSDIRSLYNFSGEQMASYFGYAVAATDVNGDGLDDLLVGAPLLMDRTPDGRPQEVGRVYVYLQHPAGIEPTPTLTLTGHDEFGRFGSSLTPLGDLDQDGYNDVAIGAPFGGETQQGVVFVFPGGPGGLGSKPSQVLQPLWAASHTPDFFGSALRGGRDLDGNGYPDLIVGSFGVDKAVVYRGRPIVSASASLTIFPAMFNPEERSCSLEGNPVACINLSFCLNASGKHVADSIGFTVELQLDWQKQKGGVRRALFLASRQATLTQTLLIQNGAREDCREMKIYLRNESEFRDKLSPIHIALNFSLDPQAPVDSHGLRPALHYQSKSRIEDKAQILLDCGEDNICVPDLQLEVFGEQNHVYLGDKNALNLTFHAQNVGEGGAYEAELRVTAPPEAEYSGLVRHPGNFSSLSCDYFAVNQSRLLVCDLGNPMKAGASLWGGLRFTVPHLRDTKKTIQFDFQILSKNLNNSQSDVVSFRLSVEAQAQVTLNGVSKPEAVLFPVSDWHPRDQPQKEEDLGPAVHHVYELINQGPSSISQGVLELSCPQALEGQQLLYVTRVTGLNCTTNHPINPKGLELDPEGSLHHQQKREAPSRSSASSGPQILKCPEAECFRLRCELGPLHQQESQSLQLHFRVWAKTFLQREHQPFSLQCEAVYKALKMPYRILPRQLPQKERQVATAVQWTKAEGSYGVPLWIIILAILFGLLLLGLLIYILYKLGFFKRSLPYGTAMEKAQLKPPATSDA
T2 sequence (chain, as listed by the source, chain 2 of 2): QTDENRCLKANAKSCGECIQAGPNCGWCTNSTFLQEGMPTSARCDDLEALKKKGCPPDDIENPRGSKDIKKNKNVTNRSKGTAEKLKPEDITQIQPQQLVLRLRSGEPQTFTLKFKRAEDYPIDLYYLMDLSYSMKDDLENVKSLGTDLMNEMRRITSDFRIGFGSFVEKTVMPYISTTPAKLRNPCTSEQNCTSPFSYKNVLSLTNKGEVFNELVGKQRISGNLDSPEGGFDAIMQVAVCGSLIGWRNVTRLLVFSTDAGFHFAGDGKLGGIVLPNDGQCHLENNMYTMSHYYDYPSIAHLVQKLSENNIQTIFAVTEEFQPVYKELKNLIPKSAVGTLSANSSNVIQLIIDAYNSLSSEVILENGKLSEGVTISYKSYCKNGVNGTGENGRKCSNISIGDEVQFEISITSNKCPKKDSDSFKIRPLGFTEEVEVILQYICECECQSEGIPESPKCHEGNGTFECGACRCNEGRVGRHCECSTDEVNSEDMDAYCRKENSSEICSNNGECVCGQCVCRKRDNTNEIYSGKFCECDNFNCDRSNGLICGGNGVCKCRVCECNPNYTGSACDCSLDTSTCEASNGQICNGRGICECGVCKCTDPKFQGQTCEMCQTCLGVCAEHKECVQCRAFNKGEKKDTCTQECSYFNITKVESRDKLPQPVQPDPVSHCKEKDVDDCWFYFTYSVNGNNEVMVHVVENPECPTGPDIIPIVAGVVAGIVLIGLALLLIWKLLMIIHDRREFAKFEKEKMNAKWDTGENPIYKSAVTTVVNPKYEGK

| Binder | IC50 |
| --- | --- |
| cyclo(RGDL[dP][NMeK](Ac)GL) [Compound 9] | > 1000 nM |
| B1 | > 1000 nM |
| cyclo(RGDL[dP]PGL) [Compound 2] | > 1000 nM |

Biological target: T3, integrin αvβ8 (human, UniProt P06756)
T3 chain 1: T1 chain 1
T3 chain 2: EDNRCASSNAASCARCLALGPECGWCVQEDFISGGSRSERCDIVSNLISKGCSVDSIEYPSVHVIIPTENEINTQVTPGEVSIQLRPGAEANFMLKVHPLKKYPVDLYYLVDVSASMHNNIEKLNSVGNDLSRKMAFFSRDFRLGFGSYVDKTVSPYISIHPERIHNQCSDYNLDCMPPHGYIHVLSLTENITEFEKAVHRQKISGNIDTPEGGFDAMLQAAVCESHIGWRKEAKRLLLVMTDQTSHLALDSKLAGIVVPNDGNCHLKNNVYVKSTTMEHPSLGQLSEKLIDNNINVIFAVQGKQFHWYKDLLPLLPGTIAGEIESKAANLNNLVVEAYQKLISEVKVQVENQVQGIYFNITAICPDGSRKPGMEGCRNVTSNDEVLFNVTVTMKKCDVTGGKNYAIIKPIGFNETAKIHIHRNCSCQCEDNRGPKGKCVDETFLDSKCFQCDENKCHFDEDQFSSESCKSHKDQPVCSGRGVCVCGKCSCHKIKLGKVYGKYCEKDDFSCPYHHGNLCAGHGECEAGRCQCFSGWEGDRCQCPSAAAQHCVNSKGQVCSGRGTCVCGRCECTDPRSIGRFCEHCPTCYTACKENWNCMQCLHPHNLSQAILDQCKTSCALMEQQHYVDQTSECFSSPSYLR
Assay: competition

| Binder | IC50 |
| --- | --- |
| cyclo(RGDL[dP][NMeK](Ac)GL) [Compound 9] | 6 nM |
| B1 | 6.5 nM |
| cyclo(RGDL[dP]PGL) [Compound 2] | 0.93 nM |

Biological target: T4, integrin αIIbβ3 (human, UniProt P08514)
Assay: competition

| Binder | IC50 |
| --- | --- |
| cyclo(RGDL[dP][NMeK](Ac)GL) [Compound 9] | > 1000 nM |
| B1 | > 1000 nM |
| cyclo(RGDL[dP]PGL) [Compound 2] | > 1000 nM |

Biological target: T4, integrin αIIbβ3
Assay: competition
Remark: another data set of the same source

| Binder | IC50 |
| --- | --- |
| cyclo(RGDL[dP][NMeK]([Ahx-BDPFL])GL) [Compound 9b (9-Ahx-BDPFL)] | > 1000 nM |
| cyclo(RGD[dF]K) [Compound 12 (Table 3) c(RGDfK)] | > 10000 nM |

Biological target: T5, integrin αvβ6 (human, UniProt P06756)
T5 chain 1: T1 chain 1
T5 chain 2: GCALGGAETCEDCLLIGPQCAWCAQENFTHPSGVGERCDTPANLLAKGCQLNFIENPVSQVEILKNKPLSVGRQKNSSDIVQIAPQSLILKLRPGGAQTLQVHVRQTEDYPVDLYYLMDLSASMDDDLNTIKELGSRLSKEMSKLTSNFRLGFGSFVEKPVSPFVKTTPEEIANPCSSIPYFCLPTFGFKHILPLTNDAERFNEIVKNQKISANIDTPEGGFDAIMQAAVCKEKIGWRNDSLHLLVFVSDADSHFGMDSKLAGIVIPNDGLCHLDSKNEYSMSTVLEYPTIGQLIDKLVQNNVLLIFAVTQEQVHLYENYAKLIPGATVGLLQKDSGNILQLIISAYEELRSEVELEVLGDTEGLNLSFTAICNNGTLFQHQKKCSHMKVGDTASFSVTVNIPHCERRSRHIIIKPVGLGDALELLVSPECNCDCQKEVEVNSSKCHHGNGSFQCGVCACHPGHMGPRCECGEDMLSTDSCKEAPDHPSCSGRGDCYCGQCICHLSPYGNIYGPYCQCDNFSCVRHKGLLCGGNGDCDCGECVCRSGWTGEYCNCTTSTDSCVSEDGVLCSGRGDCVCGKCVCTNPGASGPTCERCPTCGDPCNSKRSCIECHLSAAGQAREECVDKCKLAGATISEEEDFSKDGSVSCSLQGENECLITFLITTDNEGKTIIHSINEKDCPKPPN
Assay: competition

| Binder | IC50 |
| --- | --- |
| cyclo(RGDL[dP][NMeK](Ac)GL) [Compound 9] | 201 nM |
| B1 | 201 nM |
| cyclo(RGDL[dP]PGL) [Compound 2] | 210 nM |

Biological target: T6, integrin αvβ3 (human, UniProt P06756)
T6 chain 1: T1 chain 1
T6 chain 2: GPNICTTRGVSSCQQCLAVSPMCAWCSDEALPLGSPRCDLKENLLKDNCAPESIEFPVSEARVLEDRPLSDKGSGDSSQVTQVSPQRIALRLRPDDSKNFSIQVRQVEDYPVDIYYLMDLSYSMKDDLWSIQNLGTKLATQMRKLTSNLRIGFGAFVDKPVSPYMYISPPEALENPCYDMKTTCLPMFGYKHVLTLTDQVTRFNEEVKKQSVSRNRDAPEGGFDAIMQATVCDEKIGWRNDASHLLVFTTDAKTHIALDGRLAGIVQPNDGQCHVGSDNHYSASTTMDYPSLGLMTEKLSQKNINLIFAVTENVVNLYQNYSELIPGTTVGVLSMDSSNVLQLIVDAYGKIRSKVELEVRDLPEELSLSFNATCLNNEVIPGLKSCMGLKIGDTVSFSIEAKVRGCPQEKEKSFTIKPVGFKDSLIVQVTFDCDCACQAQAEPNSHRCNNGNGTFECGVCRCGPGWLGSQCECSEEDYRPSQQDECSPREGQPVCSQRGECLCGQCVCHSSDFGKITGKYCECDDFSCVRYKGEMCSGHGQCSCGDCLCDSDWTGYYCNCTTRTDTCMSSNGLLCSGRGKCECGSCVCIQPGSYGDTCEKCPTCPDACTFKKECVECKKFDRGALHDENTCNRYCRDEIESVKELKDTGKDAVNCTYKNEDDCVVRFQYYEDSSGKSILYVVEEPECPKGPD
Assay: competition

| Binder | IC50 |
| --- | --- |
| cyclo(RGDL[dP][NMeK](Ac)GL) [Compound 9] | 423 nM |
| B1 | > 1000 nM |
| cyclo(RGDL[dP]PGL) [Compound 2] | > 1000 nM |

Biological target: T3, integrin αvβ8
Assay: competition
Remark: another data set of the same source

| Binder | IC50 |
| --- | --- |
| cyclo(RGDL[dP][NMeK](BDPFL)GL) [Compound 9a (9-BDPFL)] | 0.66 nM |
| cyclo(RGDL[dP][NMeK]([Ahx-BDPFL])GL) [Compound 9b (9-Ahx-BDPFL)] | 0.87 nM |

Biological target: T5, integrin αvβ6
Assay: competition
Remark: another data set of the same source

| Binder | IC50 |
| --- | --- |
| cyclo(RGDL[dP][NMeK](BDPFL)GL) [Compound 9a (9-BDPFL)] | 94 nM |
| cyclo(RGDL[dP][NMeK]([Ahx-BDPFL])GL) [Compound 9b (9-Ahx-BDPFL)] | 55 nM |

Biological target: T1, integrin αvβ5
Assay: competition
Remark: another data set of the same source

| Binder | IC50 |
| --- | --- |
| cyclo(RGDL[dP][NMeK](BDPFL)GL) [Compound 9a (9-BDPFL)] | > 10000 nM |
| cyclo(RGDL[dP][NMeK]([Ahx-BDPFL])GL) [Compound 9b (9-Ahx-BDPFL)] | > 10000 nM |

Biological target: T2, integrin α5β1
Assay: competition
Remark: another data set of the same source

| Binder | IC50 |
| --- | --- |
| cyclo(RGDL[dP][NMeK](BDPFL)GL) [Compound 9a (9-BDPFL)] | 1470 nM |
| cyclo(RGDL[dP][NMeK]([Ahx-BDPFL])GL) [Compound 9b (9-Ahx-BDPFL)] | > 1000 nM |
| cyclo(RGD[dF]K) [Compound 12 (Table 3) c(RGDfK)] | 141 nM |

Biological target: T6, integrin αvβ3
Assay: competition
Remark: another data set of the same source

| Binder | IC50 |
| --- | --- |
| cyclo(RGDL[dP][NMeK](BDPFL)GL) [Compound 9a (9-BDPFL)] | 676 nM |
| cyclo(RGDL[dP][NMeK]([Ahx-BDPFL])GL) [Compound 9b (9-Ahx-BDPFL)] | 239 nM |
